{"source": "paper PMC11891296", "about": "“Mechanical forces and ligand binding modulate Pseudomonas aeruginosa PilY1 mechanosensitive protein” (Life Science Alliance, 2025)", "target": "T1, recombinant αVβ5 human integrin extracellular domains (human, UniProt P06756 31-992; P18084 24-719)", "T1 construct": "integrin alpha-V, human, extracellular domain; integrin beta-5, human, extracellular domain; also called integrin αVβ5 heterodimer; source: bought: R&D Systems", "T1 sequence (P06756 31-992, chain 1 of 2)": "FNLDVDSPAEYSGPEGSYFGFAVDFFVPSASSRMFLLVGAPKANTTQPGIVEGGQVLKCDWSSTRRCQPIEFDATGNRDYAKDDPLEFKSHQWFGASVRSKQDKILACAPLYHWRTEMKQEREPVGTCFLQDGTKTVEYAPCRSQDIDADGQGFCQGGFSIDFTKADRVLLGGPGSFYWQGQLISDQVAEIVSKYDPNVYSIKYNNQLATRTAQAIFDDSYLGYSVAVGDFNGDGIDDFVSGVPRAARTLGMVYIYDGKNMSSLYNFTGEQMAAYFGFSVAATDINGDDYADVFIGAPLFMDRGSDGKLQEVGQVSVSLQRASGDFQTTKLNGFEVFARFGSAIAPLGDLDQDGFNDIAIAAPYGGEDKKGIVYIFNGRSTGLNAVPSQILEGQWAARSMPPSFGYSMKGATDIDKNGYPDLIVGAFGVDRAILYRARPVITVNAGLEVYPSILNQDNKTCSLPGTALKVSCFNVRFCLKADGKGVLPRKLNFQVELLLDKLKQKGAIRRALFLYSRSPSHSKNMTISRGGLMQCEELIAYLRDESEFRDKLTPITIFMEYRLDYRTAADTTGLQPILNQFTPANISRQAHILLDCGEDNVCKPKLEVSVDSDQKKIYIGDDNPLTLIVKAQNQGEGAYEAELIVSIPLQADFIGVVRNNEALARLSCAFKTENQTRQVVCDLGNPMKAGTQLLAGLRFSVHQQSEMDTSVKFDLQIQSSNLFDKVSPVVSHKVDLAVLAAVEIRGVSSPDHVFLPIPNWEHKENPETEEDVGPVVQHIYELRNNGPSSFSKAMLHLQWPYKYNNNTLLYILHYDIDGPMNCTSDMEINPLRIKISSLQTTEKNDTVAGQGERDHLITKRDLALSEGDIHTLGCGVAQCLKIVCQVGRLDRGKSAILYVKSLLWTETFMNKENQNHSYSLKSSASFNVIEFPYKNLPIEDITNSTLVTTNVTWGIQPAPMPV", "T1 sequence (P18084 24-719, chain 2 of 2)": "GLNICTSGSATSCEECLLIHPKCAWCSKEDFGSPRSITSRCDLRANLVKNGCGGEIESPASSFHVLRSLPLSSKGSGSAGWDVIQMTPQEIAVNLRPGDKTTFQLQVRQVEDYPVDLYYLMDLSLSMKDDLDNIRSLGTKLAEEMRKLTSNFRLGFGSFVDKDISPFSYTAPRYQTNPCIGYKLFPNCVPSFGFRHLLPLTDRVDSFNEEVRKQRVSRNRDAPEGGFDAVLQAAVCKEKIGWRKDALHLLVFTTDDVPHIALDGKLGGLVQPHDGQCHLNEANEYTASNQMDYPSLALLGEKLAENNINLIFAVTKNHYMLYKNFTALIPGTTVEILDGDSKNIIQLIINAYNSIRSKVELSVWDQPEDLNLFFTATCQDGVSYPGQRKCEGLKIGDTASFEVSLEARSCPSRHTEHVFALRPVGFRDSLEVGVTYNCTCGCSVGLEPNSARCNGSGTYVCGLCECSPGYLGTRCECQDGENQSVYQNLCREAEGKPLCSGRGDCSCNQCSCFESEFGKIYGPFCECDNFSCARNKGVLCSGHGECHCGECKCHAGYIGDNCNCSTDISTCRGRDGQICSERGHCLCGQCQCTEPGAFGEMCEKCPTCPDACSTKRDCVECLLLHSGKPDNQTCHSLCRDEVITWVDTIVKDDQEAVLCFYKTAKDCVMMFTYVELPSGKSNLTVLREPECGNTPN", "assay": "single-molecule magnetic tweezers; PilY1 construct tethered between HaloTag-ligand glass and streptavidin-coated superparamagnetic bead, held at constant low force (5-6 pN, below 7 pN) where I1 and I2 fold and unfold; 200 nM integrin added in binding buffer (10 mM Hepes pH 7.2, 150 mM NaCl, 10 mM ascorbic acid, 2 mM CaCl2, 1 mM MgCl2, 1 mM MnCl2); binding read as shortening of the unfolded extension of I2", "conditions": "both partners purified", "data": [{"binder": "PilY1^501−1161 chimeric polyprotein (HaloTag-(I32)2-PilY1 residues 501-1161-(I32)2-HisTag-AviTag) (domain or fragment, biotin on the AviTag, gene optimized for expression in E. coli; The HisTag lies between the last I32 and the AviTag; also called PilY1 C-terminal section; source: E. coli BL21 Star, purified (HisPur Cobalt resin, Superdex 200 SEC), biotinylated in vitro; not shown: HaloTag, N-terminal, kept; 2x human titin I32 domain, N-terminal, kept; 2x human titin I32 domain, C-terminal, kept; AviTag (biotinylated), C-terminal, kept) ISSSLQEDDTGDKLTRFAYQTSFASDKNWAGDLTRYSLTTQDKATVQTKLWSAQSILDAMPNGGAGRKIMMAGSGTSGLKEFTWGSLSADQQRQLNRDPDRNDVADTKGQDRVAFLRGDRRKENSDNFRTRNSILGDIINSSPATVGKAQYLTYLAQPIEPSGNYSTFAEAQKTRAPRVYVGANDGMLHGFDTDGNETFAFIPSAVFEKLHKLTARGYQGGAHQFYVDGSPVVADAFFGGAWHTVLIGSLRAGGKGLFALDVTDPANIKLLWEIGVDQEPDLGYSFPKPTVARLHNGKWAVVTGNGYSSLNDKAALLIIDLETGAITRKLEVTGRTGVPNGLSSPRLADNNSDGVADYAYAGDLQGNLWRFDLIAGKVNQDDPFSRANDGPAVASSFRVSFGGQPLYSAVDSAGAAQAITAAPSLVRHPTRKGYIVIFGTGKYFENADARADTSRAQTLYGIWDQQTKGEAAGSTPRLTRGNLQQQTLDLQADSTFASTARTIRIASQNPVNWLNNDGSTKQSGWYLDFMVNGTLKGEMLIEDMIAIGQVVLLQTITPNDDPCADGASNWTYGLDPYTGGRTSFTVFDLARQGVVDSKSDYSYNKQNVAVSGTEQKGLGGLTLSTNEQGNPEVCSSGECLTVNPGPNTRGRQNWRPIEGKN", "values": [{"measurement": "binding result", "result": "binds"}]}]}
